Literature values, collected in patent US9770419B2, “Methods and compositions of camel derived products” (priority 2012, dated 2017).

Key:
HCV (genotype 4a) = conditions: compared with human, bovine and sheep lactoferrin
[1] = tested on: colon cancer cell line, HCT-116; conditions: in vitro

B1: Camel Lactoferrin: iron containing protein, molecular mass 76-80 kDa, 689 amino acids residues, isolated from camel milk (protein, UniProt Q9TUM0 20-708, looked up)
Lactotransferrin: ASKKSVRWCTTSPAESSKCAQWQRRMKKVRGPSVTCVKKTSRFECIQAISTEKADAVTLDGGLVYDAGLDPYKLRPIAAEVYGTENNPQTHYYAVAIAKKGTNFQLNQLQGLKSCHTGLGRSAGWNIPMGLLRPFLDWTGPPEPLQKAVAKFFSASCVPCVDGKEYPNLCQLCAGTGENKCACSSQEPYFGYSGAFKCLQDGAGDVAFVKDSTVFESLPAKADRDQYELLCPNNTRKPVDAFQECHLARVPSHAVVARSVNGKEDLIWKLLVKAQEKFGRGKPSGFQLFGSPAGQKDLLFKDSALGLLRISSKIDSGLYLGSNYITAIRGLRETAAEVELRRAQVVWCAVGSDEQLKCQEWSRQSNQSVVCATASTTEDCIALVLKGEADALSLDGGYIYIAGKCGLVPVLAESQQSPESSGLDCVHRPVKGYLAVAVVRKANDKITWNSLRGKKSCHTAVDRTAGWNIPMGLLSKNTDSCRFDEFLSQSCAPGSDPRSKLCALCAGNEEGQNKCVPNSSERYYGYTGAFRCLAENVGDVAFVKDVTVLDNTDGKNTEQWAKDLKLGDFELLCLNGTRKPVTEAESCHLAVAPNHAVVSRIDKVAHLEQVLLRQQAHFGRNGRDCPGKFCLFQSKTKNLLFNDNTECLAKLQGKTTYEEYLGPQYVTAIAKLRRCSTSPLLEACAFLMR
In the case of B1, the “inhibitory effect on HCV” value (HCV (genotype 4a)) is given as “higher than human, bovine and sheep lactoferrin”, the “proliferation of HCT-116” value [1] is given as “inhibit the proliferation” and the DNA damage (DNA damage) is given as “inhibit”. The antioxidant activities (DNA damage) was “exhibits antioxidant activities”.
